From paper PMC12365614, “Bipartite chromatin recognition by Hop1 from two diverged Holozoa” come the findings set out here.

Data set [1] concerns S. mansoni Hop1 CBR WT (Schistosoma mansoni). The data set is described as follows: fluorescence polarization. Conditions: FP: 20 mM Tris-HCl pH 8, 100 mM Na glutamate, 5 mM MgCl2, 3% glycerol, 0.5 mM BME, 50 nM DNA, 4 C 30 min; EMSA: 20 mM Hepes pH 7, 100 mM NaCl, 100 uM ZnCl2, 10%.
Data set [2] addresses T1, P. miniata Hop1 CBR R463A (Patiria miniata, UniProt A0A913ZKG6 352-499, R463A).
T1 sequence: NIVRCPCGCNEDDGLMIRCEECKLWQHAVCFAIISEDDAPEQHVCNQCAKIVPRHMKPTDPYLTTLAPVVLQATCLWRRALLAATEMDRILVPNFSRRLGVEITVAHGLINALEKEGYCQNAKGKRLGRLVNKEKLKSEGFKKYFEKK
Put plainly: fluorescence polarization; FP: 20 mM Tris-HCl pH 8, 100 mM Na glutamate, 5 mM MgCl2, 3% glycerol, 0.5 mM BME, 50 nM DNA, 4 C 30 min; EMSA: 20 mM Hepes pH 7, 100 mM NaCl, 100 uM ZnCl2, 10% glycerol, 2 mM BME, 4 C 60 min. The following applies: protein: recombinant; tags: N-terminal His6-GST (uncleaved); label: 5' 6-FAM on strand 1; blunt.

The target in data set [3] is T2, P. miniata Hop1 CBR WT (GST) (Patiria miniata, UniProt A0A913ZKG6 352-499).
T2 sequence: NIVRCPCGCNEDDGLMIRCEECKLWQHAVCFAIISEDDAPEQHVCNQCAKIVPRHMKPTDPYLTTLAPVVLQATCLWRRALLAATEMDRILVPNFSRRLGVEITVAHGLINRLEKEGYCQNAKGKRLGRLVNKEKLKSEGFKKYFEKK
The description is as above. Conditions: protein: recombinant; tags: N-terminal His6-GST (uncleaved); label: 5' 6-FAM on strand 1; blunt.

For data set [4], the target named is T3, P. miniata Hop1 CBR R477A (Patiria miniata, UniProt A0A913ZKG6 352-499, R477A).
T3 sequence: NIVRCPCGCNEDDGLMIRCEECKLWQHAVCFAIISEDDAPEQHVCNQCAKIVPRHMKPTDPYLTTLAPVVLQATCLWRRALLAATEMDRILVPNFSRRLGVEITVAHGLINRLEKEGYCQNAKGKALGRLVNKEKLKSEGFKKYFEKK
Described as above. Conditions: protein: recombinant; tags: N-terminal His6-GST (uncleaved); label: 5' 6-FAM on strand 1; blunt.

For “CTTATATCTGAATAGTCAGT (double strand) [20-bp FAM duplex]”, in data set [1], the Kd came to 16 µM.

B1: 20-bp FAM duplex (dsDNA)
DNA 1: CTTATATCTGAATAGTCAGT
DNA 2: ACTGACTATTCAGATATAAG
Turning to B1, the binding result in data set [2] and in data set [4] was “no binding” each time. Moreover, in data set [3], the Kd stood at 16 µM.
